From patent US20180016327A1 (Chugai, published 2018)

B1: CFP0021 21L 50A (antibody, V domains shown)
VH: QVQLVESGGGLVQPGGSLRLSCAASGFTFSDHYMDWVRQAPGKGLEWVGRTRNKANSYTTEYAASVKGRFTISRDDSKNSLYLQMNSLKTEDTAVYYCARTGMMYWGIFDVWGQGTLVTVSS
VL: DIQMTQSPSSLSASVGDRVTITCRASQSIEDDLAWYQQKPGKAPKLLIYAASTLQSGVPSRFSGSGSGTDFTLTISSLQPEDFATYYCQQHDSYPLTFGQGTKVEIK
B2: CFP0021 21L 92N (antibody, V domains shown)
VH: QVQLVESGGGLVQPGGSLRLSCAASGFTFSDHYMDWVRQAPGKGLEWVGRTRNKANSYTTEYAASVKGRFTISRDDSKNSLYLQMNSLKTEDTAVYYCARTGMMYWGIFDVWGQGTLVTVSS
VL: DIQMTQSPSSLSASVGDRVTITCRASQSIEDDLAWYQQKPGKAPKLLIYHASTLQSGVPSRFSGSGSGTDFTLTISSLQPEDFATYYCQQHNSYPLTFGQGTKVEIK
B3: CFP0021 21L 93N (antibody, V domains shown)
VH: QVQLVESGGGLVQPGGSLRLSCAASGFTFSDHYMDWVRQAPGKGLEWVGRTRNKANSYTTEYAASVKGRFTISRDDSKNSLYLQMNSLKTEDTAVYYCARTGMMYWGIFDVWGQGTLVTVSS
VL: DIQMTQSPSSLSASVGDRVTITCRASQSIEDDLAWYQQKPGKAPKLLIYHASTLQSGVPSRFSGSGSGTDFTLTISSLQPEDFATYYCQQHDNYPLTFGQGTKVEIK
B4: CFP0021 21L 50D (antibody, V domains shown)
VH: QVQLVESGGGLVQPGGSLRLSCAASGFTFSDHYMDWVRQAPGKGLEWVGRTRNKANSYTTEYAASVKGRFTISRDDSKNSLYLQMNSLKTEDTAVYYCARTGMMYWGIFDVWGQGTLVTVSS
VL: DIQMTQSPSSLSASVGDRVTITCRASQSIEDDLAWYQQKPGKAPKLLIYDASTLQSGVPSRFSGSGSGTDFTLTISSLQPEDFATYYCQQHDSYPLTFGQGTKVEIK
B5: CFP0021 21L 92S (antibody, V domains shown)
VH: QVQLVESGGGLVQPGGSLRLSCAASGFTFSDHYMDWVRQAPGKGLEWVGRTRNKANSYTTEYAASVKGRFTISRDDSKNSLYLQMNSLKTEDTAVYYCARTGMMYWGIFDVWGQGTLVTVSS
VL: DIQMTQSPSSLSASVGDRVTITCRASQSIEDDLAWYQQKPGKAPKLLIYHASTLQSGVPSRFSGSGSGTDFTLTISSLQPEDFATYYCQQHSSYPLTFGQGTKVEIK
B6: CFP0021 21L 94F (antibody, V domains shown)
VH: QVQLVESGGGLVQPGGSLRLSCAASGFTFSDHYMDWVRQAPGKGLEWVGRTRNKANSYTTEYAASVKGRFTISRDDSKNSLYLQMNSLKTEDTAVYYCARTGMMYWGIFDVWGQGTLVTVSS
VL: DIQMTQSPSSLSASVGDRVTITCRASQSIEDDLAWYQQKPGKAPKLLIYHASTLQSGVPSRFSGSGSGTDFTLTISSLQPEDFATYYCQQHDSFPLTFGQGTKVEIK
B7: CFP0021 21L 53H (antibody, V domains shown)
VH: QVQLVESGGGLVQPGGSLRLSCAASGFTFSDHYMDWVRQAPGKGLEWVGRTRNKANSYTTEYAASVKGRFTISRDDSKNSLYLQMNSLKTEDTAVYYCARTGMMYWGIFDVWGQGTLVTVSS
VL: DIQMTQSPSSLSASVGDRVTITCRASQSIEDDLAWYQQKPGKAPKLLIYHASHLQSGVPSRFSGSGSGTDFTLTISSLQPEDFATYYCQQHDSYPLTFGQGTKVEIK
B8: CFP0021 21L 91Y (antibody, V domains shown)
VH: QVQLVESGGGLVQPGGSLRLSCAASGFTFSDHYMDWVRQAPGKGLEWVGRTRNKANSYTTEYAASVKGRFTISRDDSKNSLYLQMNSLKTEDTAVYYCARTGMMYWGIFDVWGQGTLVTVSS
VL: DIQMTQSPSSLSASVGDRVTITCRASQSIEDDLAWYQQKPGKAPKLLIYHASTLQSGVPSRFSGSGSGTDFTLTISSLQPEDFATYYCQQYDSYPLTFGQGTKVEIK
B9: CFP0021 21L 50E (antibody, V domains shown)
VH: QVQLVESGGGLVQPGGSLRLSCAASGFTFSDHYMDWVRQAPGKGLEWVGRTRNKANSYTTEYAASVKGRFTISRDDSKNSLYLQMNSLKTEDTAVYYCARTGMMYWGIFDVWGQGTLVTVSS
VL: DIQMTQSPSSLSASVGDRVTITCRASQSIEDDLAWYQQKPGKAPKLLIYEASTLQSGVPSRFSGSGSGTDFTLTISSLQPEDFATYYCQQHDSYPLTFGQGTKVEIK
B10: CFP0021 21L 50Q (antibody, V domains shown)
VH: QVQLVESGGGLVQPGGSLRLSCAASGFTFSDHYMDWVRQAPGKGLEWVGRTRNKANSYTTEYAASVKGRFTISRDDSKNSLYLQMNSLKTEDTAVYYCARTGMMYWGIFDVWGQGTLVTVSS
VL: DIQMTQSPSSLSASVGDRVTITCRASQSIEDDLAWYQQKPGKAPKLLIYQASTLQSGVPSRFSGSGSGTDFTLTISSLQPEDFATYYCQQHDSYPLTFGQGTKVEIK
B11: CFP0021 21L 91S (antibody, V domains shown)
VH: QVQLVESGGGLVQPGGSLRLSCAASGFTFSDHYMDWVRQAPGKGLEWVGRTRNKANSYTTEYAASVKGRFTISRDDSKNSLYLQMNSLKTEDTAVYYCARTGMMYWGIFDVWGQGTLVTVSS
VL: DIQMTQSPSSLSASVGDRVTITCRASQSIEDDLAWYQQKPGKAPKLLIYHASTLQSGVPSRFSGSGSGTDFTLTISSLQPEDFATYYCQQSDSYPLTFGQGTKVEIK
B12: CFP0021 21L 53N (antibody, V domains shown)
VH: QVQLVESGGGLVQPGGSLRLSCAASGFTFSDHYMDWVRQAPGKGLEWVGRTRNKANSYTTEYAASVKGRFTISRDDSKNSLYLQMNSLKTEDTAVYYCARTGMMYWGIFDVWGQGTLVTVSS
VL: DIQMTQSPSSLSASVGDRVTITCRASQSIEDDLAWYQQKPGKAPKLLIYHASNLQSGVPSRFSGSGSGTDFTLTISSLQPEDFATYYCQQHDSYPLTFGQGTKVEIK
B13: CFP0021 21L 53S (antibody, V domains shown)
VH: QVQLVESGGGLVQPGGSLRLSCAASGFTFSDHYMDWVRQAPGKGLEWVGRTRNKANSYTTEYAASVKGRFTISRDDSKNSLYLQMNSLKTEDTAVYYCARTGMMYWGIFDVWGQGTLVTVSS
VL: DIQMTQSPSSLSASVGDRVTITCRASQSIEDDLAWYQQKPGKAPKLLIYHASSLQSGVPSRFSGSGSGTDFTLTISSLQPEDFATYYCQQHDSYPLTFGQGTKVEIK
B14: CFP0021 21L 50Y (antibody, V domains shown)
VH: QVQLVESGGGLVQPGGSLRLSCAASGFTFSDHYMDWVRQAPGKGLEWVGRTRNKANSYTTEYAASVKGRFTISRDDSKNSLYLQMNSLKTEDTAVYYCARTGMMYWGIFDVWGQGTLVTVSS
VL: DIQMTQSPSSLSASVGDRVTITCRASQSIEDDLAWYQQKPGKAPKLLIYYASTLQSGVPSRFSGSGSGTDFTLTISSLQPEDFATYYCQQHDSYPLTFGQGTKVEIK
B15: CFP0021 21L 91R (antibody, V domains shown)
VH: QVQLVESGGGLVQPGGSLRLSCAASGFTFSDHYMDWVRQAPGKGLEWVGRTRNKANSYTTEYAASVKGRFTISRDDSKNSLYLQMNSLKTEDTAVYYCARTGMMYWGIFDVWGQGTLVTVSS
VL: DIQMTQSPSSLSASVGDRVTITCRASQSIEDDLAWYQQKPGKAPKLLIYHASTLQSGVPSRFSGSGSGTDFTLTISSLQPEDFATYYCQQRDSYPLTFGQGTKVEIK
B16: CFP0021 21L 93D (antibody, V domains shown)
VH: QVQLVESGGGLVQPGGSLRLSCAASGFTFSDHYMDWVRQAPGKGLEWVGRTRNKANSYTTEYAASVKGRFTISRDDSKNSLYLQMNSLKTEDTAVYYCARTGMMYWGIFDVWGQGTLVTVSS
VL: DIQMTQSPSSLSASVGDRVTITCRASQSIEDDLAWYQQKPGKAPKLLIYHASTLQSGVPSRFSGSGSGTDFTLTISSLQPEDFATYYCQQHDDYPLTFGQGTKVEIK
B17: CFP0021 21L 50T (antibody, V domains shown)
VH: QVQLVESGGGLVQPGGSLRLSCAASGFTFSDHYMDWVRQAPGKGLEWVGRTRNKANSYTTEYAASVKGRFTISRDDSKNSLYLQMNSLKTEDTAVYYCARTGMMYWGIFDVWGQGTLVTVSS
VL: DIQMTQSPSSLSASVGDRVTITCRASQSIEDDLAWYQQKPGKAPKLLIYTASTLQSGVPSRFSGSGSGTDFTLTISSLQPEDFATYYCQQHDSYPLTFGQGTKVEIK
B18: CFP0021 21L 93R (antibody, V domains shown)
VH: QVQLVESGGGLVQPGGSLRLSCAASGFTFSDHYMDWVRQAPGKGLEWVGRTRNKANSYTTEYAASVKGRFTISRDDSKNSLYLQMNSLKTEDTAVYYCARTGMMYWGIFDVWGQGTLVTVSS
VL: DIQMTQSPSSLSASVGDRVTITCRASQSIEDDLAWYQQKPGKAPKLLIYHASTLQSGVPSRFSGSGSGTDFTLTISSLQPEDFATYYCQQHDRYPLTFGQGTKVEIK
B19: CFP0021 21L 93G (antibody, V domains shown)
VH: QVQLVESGGGLVQPGGSLRLSCAASGFTFSDHYMDWVRQAPGKGLEWVGRTRNKANSYTTEYAASVKGRFTISRDDSKNSLYLQMNSLKTEDTAVYYCARTGMMYWGIFDVWGQGTLVTVSS
VL: DIQMTQSPSSLSASVGDRVTITCRASQSIEDDLAWYQQKPGKAPKLLIYHASTLQSGVPSRFSGSGSGTDFTLTISSLQPEDFATYYCQQHDGYPLTFGQGTKVEIK
B20: CFP0021 21L 50S (antibody, V domains shown)
VH: QVQLVESGGGLVQPGGSLRLSCAASGFTFSDHYMDWVRQAPGKGLEWVGRTRNKANSYTTEYAASVKGRFTISRDDSKNSLYLQMNSLKTEDTAVYYCARTGMMYWGIFDVWGQGTLVTVSS
VL: DIQMTQSPSSLSASVGDRVTITCRASQSIEDDLAWYQQKPGKAPKLLIYSASTLQSGVPSRFSGSGSGTDFTLTISSLQPEDFATYYCQQHDSYPLTFGQGTKVEIK
B21: CFP0021 21L 94H (antibody, V domains shown)
VH: QVQLVESGGGLVQPGGSLRLSCAASGFTFSDHYMDWVRQAPGKGLEWVGRTRNKANSYTTEYAASVKGRFTISRDDSKNSLYLQMNSLKTEDTAVYYCARTGMMYWGIFDVWGQGTLVTVSS
VL: DIQMTQSPSSLSASVGDRVTITCRASQSIEDDLAWYQQKPGKAPKLLIYHASTLQSGVPSRFSGSGSGTDFTLTISSLQPEDFATYYCQQHDSHPLTFGQGTKVEIK

Target: T1, human C5 (human, UniProt P01031 19-673; P01031 678-1676, Beta and alpha chains are disulfide-linked and the protein is glycosylated.)
T1 construct: Either in-house recombinant C5 or plasma derived C5 (CALBIOCHEM) was used; also called recombinant human C5; plasma derived human C5
Assay: Biacore, captured antibody, pH 7.4, 37 C;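 also: biacore binding response of anti-C5 antibody light chain variants captured on chip with human C5 injected, ACES running buffer containing 1.2 mM CaCl₂, parent light chain antibody set to 100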
Procedure: The light chain variants were tested for the binding affinity to C5 at pH 7.4 and at 37 degrees C. using Biacore T200 instrument (GE Healthcare) or Biacore 4000 instrument (GE Healthcare). […] Anti-C5 antibodies were captured on an immobilized molecule, and then human C5 was injected. The running buffer used was pH 7.4 ACES Buffer containing 1.2 mM Ca (20 mM ACES, 150 mM NaCl, 1.2 mM CaCl₂, 0.05% Tween 20). A value, % binding, was determined by normalizing binding response with that of antibody comprising parent light chain as 100.

Binder	% binding (parent = 100)
B1	33.4%
B2	4.7%
B3	28.5%
B4	53%
B5	4.8%
B6	0.9%
B7	75.7%
B8	79.5%
B9	44%
B10	61.1%
B11	17.8%
B12	97.6%
B13	73.2%
B14	74.9%
B15	1.5%
B16	22.2%
B17	38.8%
B18	5.2%
B19	37.9%
B20	40.6%
B21	2.6%
